In patent publication US20030003482A1 (published 2003):

Biological target: T1, Human MRP14 (Homo sapiens, UniProt P06702 1-114, limits assumed)
T1 sequence: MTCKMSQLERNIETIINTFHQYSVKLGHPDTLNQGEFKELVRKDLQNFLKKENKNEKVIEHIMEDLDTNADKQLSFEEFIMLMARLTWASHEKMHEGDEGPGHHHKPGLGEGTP
Experiment: statement within the sandwich ELISA example (Example 5)
Description: In order to determine the amount of MRP8/MRP14 polypeptide in various wound fluids, wound fluid samples from patients suffering from chronic diabetic wound were collected, venous ulcers as well as wound fluids from wounds of healthy persons. Wound fluids were isolated as described in Example 2 by means of drainage. For the determination of MRP8/MRP14 content, Maxi-Sorb Immunoplates (96-well, Nunc, Wiesbaden, Germany) were coated with polyclonal rabbit antisera against MRP14 by incubating each well overnight at 4° C. with 50 μl of coating solution (anti-MRP14 antibody, 2 μg/ml, in 0.1 M NaHCO3, pH 9.5). […] After removal of the blocking reagent, 50 μl of diluted wound fluid samples (buffer A: PBS containing 0.1% Tween 20) were added and allowed to react with the immobilized capture antibody for 1 h at 37° C. and then washed (3×) with buffer A. Bound antigen was detected by incubation (1 h, 37° C.) of each well with 50 μl of a biotinylated monoclonal antibody against MRP14 (clone S36.48, Dianova, 125 ng/ml antibody in buffer A). […] MRP8 and MRP14 spontaneously form noncovalently associated complexes to a quantitative extent which are detected by the ELISA system. […] The total polypeptide content per probe was determined using the BCA assay.

binding result: binds
B1: Human MRP8 (other)
chain: MLTELEKALNSIIDVYHKYSLIKGNFHAVYRDDLKKLLETECPQYIRKKGADVWFKELDINTDGAVNFQEFLILVIKMGVAAHKKSHEESHKE
notes: Natural protein in human wound fluid and wound biopsy tissue (Western blot); also called calgranulin A
